Measurements published in patent publication US20210269552A1 (GO THERAPEUTICS, published 2021).
Where a chain is given by its changes, count along the chain named. No end group written: not given here.

B1: 1AG (antibody, V domains shown)
VH: EVKLLESGGGLVQPGGSLKLSCAASGFDFSRDWMSWVRQAPGKGLEWIGEINPDSSTKNYTPSLKDKFIISRDNAKNTLFLQMSSVRSEDTALYYCATSHYYGLFGYWGQGTLVTVSA
VL: DIVLTQSPASLTVSLGQRATISCRASKSVSTSGYSYMHWYQQKPGQPPKLLIYLASYLESGVPARFSGSGSGTDFTLNIHPVEEEDAATYYCQHSRELPRTFGGGTKLEIK
notes: Mouse monoclonal antibody from Balb/c hybridoma; Used as hybridoma supernatant in the ELISAs; also called mAb 1AG; antibody 1AG
B2: 4AG (antibody, V domains shown)
VH: EVKLLESGGGLVQPGGSLKLSCVASGFDFSRYWMSWVRQAPGKGPEWIGEINPESNTMNYSPSLKEKFIISRDTAKNMLYLQMSKVRSEDTALYYCATSHHYGLFDYWGQGTLVTVSA
VL: B1 VL with T12A, S35N, M37I, Y91F, I110F
notes: Mouse monoclonal antibody from Balb/c hybridoma; Used as hybridoma supernatant in the ELISAs; also called mAb 4AG; antibody 4AG

Legend:
[1] = biological target: T1, MUC1 alanine library glycopeptide 8 (human, GalNAc-Serine / GalNAc-Threonine at the bold underlined positions of Table 10A (marking not preserved); the Ser-GalNAc at position 20 is replaced by alanine); experiment: ELISA, peptide coated at 0.25 µg/ml, antibody supernatant; OD mutant peptide / OD wild type glycopeptide (SEQ ID NO:99)
T1 construct: Position 20 (Ser-GalNAc) replaced by alanine
T1 peptide: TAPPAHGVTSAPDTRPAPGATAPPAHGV
Procedure: (§1) Glycopeptides and relevant controls were diluted to 0.25 μg/ml in 0.2 M bicarbonate buffer pH 9.8 and 100 μl was plated onto each well of a high binding ELISA plate. Plates were then incubated overnight at 4° C. After discarding the coating buffer, the plate was blocked with 300 μl per well of blocking buffer (2.5% BSA in 1×PBS) for 1 hr at room temperature. Blocking buffer was then discarded, and 100 μl per well of antibody supernatant for each of 5E5, 1AG, and 4AG (diluted in blocking buffer) was added and incubated for 1 hr at room temperature. Antibody supernatant dilutions were previously optimized for each antibody (data not shown). Biotinylated Villa Villosa lectin (100 μl per well of 1 μg/ml in blocking buffer) was added to the plate as a control to detect the presence of GalNAc modified residues on the peptide. Plates were washed 3 times with 300 μl per well 1×TBS/0.05% Tween-20 (TBST). The secondary antibody Goat-anti mouse IgG (H+L)-HRP was diluted 1/5000 in blocking buffer and 100 μl of the diluted antibody was added per well and incubated on the plate for 1 hr at room temperature. Streptavidin-HRP was diluted 1/3000 in blocking buffer and 100 μl of the diluted streptavidin-HRP was added to wells containing the biotinylated lectin. Following secondary incubation, the plate was washed 4 times with 300 μl of TBST per well and then developed with 75 μl of room temperature 1-Step TMB substrate. After 1 minute, color development was stopped using 75 μl 2 N sulfuric acid. The plate was then read at 450 nm using a plate reader (Molecular Device SpectraMax i3).

[2] = biological target: T2, MUC1 alanine library glycopeptide 9 (human, GalNAc-Serine / GalNAc-Threonine at the bold underlined positions of Table 10A (marking not preserved); the Thr-GalNAc at position 21 is replaced by alanine); experiment: as above
T2 construct: Position 21 (Thr-GalNAc) replaced by alanine
T2 peptide: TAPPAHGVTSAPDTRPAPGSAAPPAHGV
Procedure: as §1

[3] = biological target: T3, BSA (bovine, UniProt P02769); experiment: indirect ELISA on BSA blocked control wells, hybridoma supernatant, anti-mouse IgG-HRP, OD 450 nm
T3 construct: commercial protein in control wells; also called bovine serum albumin
T3 sequence (P02769 25-607 limits assumed): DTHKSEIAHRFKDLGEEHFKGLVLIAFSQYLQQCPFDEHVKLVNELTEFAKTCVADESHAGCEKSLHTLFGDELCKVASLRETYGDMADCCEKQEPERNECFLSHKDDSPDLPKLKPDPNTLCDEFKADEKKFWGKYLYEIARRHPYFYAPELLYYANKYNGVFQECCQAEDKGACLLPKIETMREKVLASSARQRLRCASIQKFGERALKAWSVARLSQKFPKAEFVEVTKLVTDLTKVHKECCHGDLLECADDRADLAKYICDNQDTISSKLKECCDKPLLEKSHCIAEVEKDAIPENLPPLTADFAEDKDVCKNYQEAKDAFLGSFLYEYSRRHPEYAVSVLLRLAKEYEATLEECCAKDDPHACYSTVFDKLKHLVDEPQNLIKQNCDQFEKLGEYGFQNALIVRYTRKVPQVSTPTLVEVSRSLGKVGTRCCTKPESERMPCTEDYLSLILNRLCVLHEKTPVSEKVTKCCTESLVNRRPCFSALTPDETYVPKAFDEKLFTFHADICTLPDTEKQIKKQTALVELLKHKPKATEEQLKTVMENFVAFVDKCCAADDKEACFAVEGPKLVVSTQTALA
Procedure: (§2) ELISA plates were coated with MUC1 peptides titrated in 0.2 M bicarbonate buffer, pH 9.4 over night in concentrations ranging from 0.08 μg/ml to 10 μg/ml. BSA was used as a control/measure of background. The plates were then blocked with SuperBlock™ (Thermo Fisher) for 1 hr at room temperature. After plate washing, 1AG and 4AG hybridoma supernatants were incubated on the ELISA plate for 1 hour. The plates were then washed, and then incubated with secondary antibody (1/3000 Goat Anti-mouse IgG (H+L) HRP (abcam 62-6520)) for 1 hour. The plate was then washed and color was developed with 1-Step™ Ultra TMB (Thermo Fisher) for 2 minutes. Color development was then stopped with 2 N Sulfuric Acid. Absorbance at 450 nm was then measured.

[4] = biological target: T4, Glycosylated peptide RPAPGSTAPPAHGVT (Table 5, SPR) (human, also: GalNAc at sites not preserved); experiment: SPR, Biacore T200, antibody on chip, peptide injected in single-cycle 6.25-100 nM, 25 C
T4 construct: Printed without biotin
T4 peptide: RPAPGSTAPPAHGVT
Procedure: Binding of the 1AG and 4AG antibodies to one glycysolated and one non-glycosylated peptide (Table 5) was assessed by surface plasmon resonance (SPR).
All SPR experiments were performed on a Biacore T200 with a CM5 sensor chip with 10,000 RU anti-mouse antibody on each channel (GE Healthcare) at 25° C. with HBS-P+ as running and sample buffer (10 mM HEPES pH 7.4, 150 mM NaCl, 0.05% Tween 20, and 1 mg/ml BSA) and 10 mM glycine, pH 1.7 as regeneration buffer.
The 1AG and 4AG antibodies were immobilized as a 30 μg/mL solution in 10 mM sodium acetate, pH 5.0 using standard amine coupling chemistry (EDC/NHS activation). Antibody capture was performed using a 10× dilution into reaction buffer for 7 to 10 minutes at 5 μL/min. Immobilization levels of 600 to 1000 RU were used. […] The dissociation was monitored for 5 minutes to 30 minutes.

[5] = biological target: T5, 2 (GalNAc-Ser / GalNAc-Thr at the positions marked bold and underlined in Table 10A (the marking is lost in the text as given)); experiment: alanine-scan ELISA: peptides coated at 0.25 ug/ml, antibody supernatant, anti-mouse IgG-HRP; OD450 divided by OD450 on the wild-type peptide
T5 construct: also called MUC1 alanine library glycopeptide 2; peptide 2
T5 peptide: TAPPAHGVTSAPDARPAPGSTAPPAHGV
Procedure: as §1

[6] = biological target: T1, MUC1 alanine library glycopeptide 8; experiment: as above
Procedure: as §1

[7] = biological target: T6, Irrelevant Glycopeptide (GalNAc-Ser / GalNAc-Thr at the positions marked bold and underlined in Table 10B (the marking is lost in the text as given)); experiment: as above
T6 peptide: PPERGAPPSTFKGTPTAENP
Procedure: as §1

[8] = biological target: T7, MUC1 alanine library glycopeptide 4 (human, GalNAc-Serine / GalNAc-Threonine at the bold underlined positions of Table 10A (marking not preserved)); experiment: as above
T7 construct: Position 16 (P) replaced by alanine
T7 peptide: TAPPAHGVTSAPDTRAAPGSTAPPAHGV
Procedure: as §1

[9] = biological target: T8, 1 (GalNAc-Ser / GalNAc-Thr at the positions marked bold and underlined in Table 10A (the marking is lost in the text as given)); experiment: as above
T8 construct: also called MUC1 alanine library glycopeptide 1; peptide 1
T8 peptide: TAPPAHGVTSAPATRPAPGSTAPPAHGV
Procedure: as §1

[10] = biological target: T9, MUC1 alanine library glycopeptide 3 (human, GalNAc-Serine / GalNAc-Threonine at the bold underlined positions of Table 10A (marking not preserved)); experiment: as above
T9 construct: Position 15 (R) replaced by alanine
T9 peptide: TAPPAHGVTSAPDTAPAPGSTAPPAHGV
Procedure: as §1

[11] = biological target: T10, Negative (none (non-glycosylated)); experiment: as above
T10 construct: also called Negative Control
T10 peptide: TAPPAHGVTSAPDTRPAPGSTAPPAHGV
Procedure: as §1

[12] = biological target: T11, MUC1 alanine library glycopeptide 12 (human, GalNAc-Serine / GalNAc-Threonine at the bold underlined positions of Table 10A (marking not preserved)); experiment: as above
T11 peptide: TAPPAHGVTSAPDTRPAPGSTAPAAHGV
Procedure: as §1

[13] = biological target: T3, BSA; experiment: indirect ELISA, BSA control wells drawn on the peptide axis, hybridoma supernatant, anti-mouse IgG-HRP, OD 450 nm
Procedure: as §2

[14] = biological target: T12, MUC1 alanine library glycopeptide 6 (human, GalNAc-Serine / GalNAc-Threonine at the bold underlined positions of Table 10A (marking not preserved)); experiment: alanine-scan ELISA: peptides coated at 0.25 ug/ml, antibody supernatant, anti-mouse IgG-HRP; OD450 divided by OD450 on the wild-type peptide
T12 construct: Position 18 (P) replaced by alanine
T12 peptide: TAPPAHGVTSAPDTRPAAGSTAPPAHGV
Procedure: as §1

[15] = biological target: T13, MUC1 alanine library glycopeptide 11 (human, GalNAc-Serine / GalNAc-Threonine at the bold underlined positions of Table 10A (marking not preserved)); experiment: as above
T13 construct: Position 23 (P) replaced by alanine
T13 peptide: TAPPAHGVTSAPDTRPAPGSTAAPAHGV
Procedure: as §1

[16] = biological target: T14, MUC1 alanine library glycopeptide 10 (human, GalNAc-Serine / GalNAc-Threonine at the bold underlined positions of Table 10A (marking not preserved)); experiment: as above
T14 construct: Position 22 (A) replaced by glycine
T14 peptide: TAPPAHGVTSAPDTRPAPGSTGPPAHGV
Procedure: as §1

| Molecule | percent binding compared to the wild type peptide [1] | percent binding compared to the wild type peptide [2] | binding result [3] | Kd [4] | koff [4] | kon [4] | binding result [5] | binding result [6] | binding result [7] | binding result [8] | binding result [9] | binding result [10] | binding result [11] | binding result [12] | binding result [13] | binding result [14] | binding result [15] | binding result [16] |
| --- | --- | --- | --- | --- | --- | --- | --- | --- | --- | --- | --- | --- | --- | --- | --- | --- | --- | --- |
| 5E5 (antibody) | 18% | 2.93% | – | – | – | – | – | – | – | – | – | – | – | – | – | – | – | – |
| B1 | 2.23% | 6.07% | no binding | 37.3 nM | 0.007 s⁻¹ | 179000 M⁻¹ s⁻¹ | binds | no binding (tested: 0.25 ug/ml coating peptide) | no binding (tested: 0.25 ug/ml coating peptide) | binds | binds | binds | no binding (tested: 0.25 ug/ml coating peptide) | binds | – | – | – | – |
| B2 | 1.63% | 14.6% | – | 3.4 nM | 0.00093 s⁻¹ | 272000 M⁻¹ s⁻¹ | binds | no binding (tested: 0.25 ug/ml coating peptide) | no binding (tested: 0.25 ug/ml coating peptide) | binds | binds | binds | no binding (tested: 0.25 ug/ml coating peptide) | binds | no binding (tested: 10 ug/ml on the peptide axis) | binds | binds | binds |
